In PMC11786912 (Computational and Structural Biotechnology Journal, 2025):
Residue numbers refer to the chain shown, from its start. Ends that are not written are not given here. * marks the point of attachment. Biotin = O=C1N[C@H]2[C@H](CS[C@H]2CCCCC(=O)*)N1; Ahx = NCCCCCC(=O)O

T1: biotinylated CD99 peptide target epitope (Biotin-Ahx-AVVDGENDDPRPPNP) (Homo sapiens (synthetic peptide))
T1 chain: {Biotin-Ahx}-AVVDGENDDPRPPNP

B1: HuScFvMT99/3^BP (His6X) (scFv, V domains shown)
VH: QVQLQESGPGLVKPSETLSLTCTVSGGSIKDTYIHWVRQPPGKGLEWIGRIDPGNGNIKYDPKFQGRATISADTSKNQVSLNLDSVTAADTAIYYCARSGGYDFDYWGQGTLVTVSS
VL: VLMTQSPSSLSASVGDRVTITCRSSQSLVHSNGNTYLHWYQQKPGQSPKLLIYTVSNRFSGVPDRFSGSGSGTDFTLTISSLQAEDVAVYYCSQSTYVPYTFGPGTKVDIK
B2: HuScFvMT99/3^HY (His6X) (scFv, V domains shown)
VH: B1 VH
VL: B1 VL with L2Q, Q46K, S47A, D64S, L77F, A84P, V87I, V89T, Y91F
B3: HuScFvMT99/3^WT (His6X) (scFv, V domains shown)
VH: B1 VH with V24L, G27F, S28N, T87S, Q109K, T111S, L112T
VL: B1 VL with L2Q, Q46K, S47A, D64S, L77F, A84P, V87I, V89T, Y91F

What was measured:
[1] = target: CD99 on the surface of Jurkat T cells (Homo sapiens (Jurkat, endogenous), UniProt P14209); experiment: flow cytometry on cells
CD99 on the surface of Jurkat T cells, sequence (P14209 23-185): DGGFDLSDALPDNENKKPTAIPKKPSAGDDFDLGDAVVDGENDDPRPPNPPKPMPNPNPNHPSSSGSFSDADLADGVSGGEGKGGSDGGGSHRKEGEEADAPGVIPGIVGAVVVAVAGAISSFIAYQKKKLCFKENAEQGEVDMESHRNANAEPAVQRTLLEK

[2] = target: T1, biotinylated CD99 peptide target …; experiment: BLI

| Binder | binding result [1] | Kd [2] [nM] |
| --- | --- | --- |
| B1 | binds | 264 |
| B2 | binds | 395 |
| B3 | – | 135 |
